This passage reports Kd results from PMC5912448.

The target in this test is human β-Klotho extracellular domain (aa 1–992) His6 (human) (UniProt Q86Z14). In words: BLI; Octet RED; biotinylated β-Klotho ECD His6 (10 μg/ml) loaded onto streptavidin biosensors; analyte at various concentrations in kinetics buffer, 5 min association, 10 min dissociation; globally fitted 1:1 binding model.
Sequence of UniProt Q86Z14 (Q86Z14 1-992): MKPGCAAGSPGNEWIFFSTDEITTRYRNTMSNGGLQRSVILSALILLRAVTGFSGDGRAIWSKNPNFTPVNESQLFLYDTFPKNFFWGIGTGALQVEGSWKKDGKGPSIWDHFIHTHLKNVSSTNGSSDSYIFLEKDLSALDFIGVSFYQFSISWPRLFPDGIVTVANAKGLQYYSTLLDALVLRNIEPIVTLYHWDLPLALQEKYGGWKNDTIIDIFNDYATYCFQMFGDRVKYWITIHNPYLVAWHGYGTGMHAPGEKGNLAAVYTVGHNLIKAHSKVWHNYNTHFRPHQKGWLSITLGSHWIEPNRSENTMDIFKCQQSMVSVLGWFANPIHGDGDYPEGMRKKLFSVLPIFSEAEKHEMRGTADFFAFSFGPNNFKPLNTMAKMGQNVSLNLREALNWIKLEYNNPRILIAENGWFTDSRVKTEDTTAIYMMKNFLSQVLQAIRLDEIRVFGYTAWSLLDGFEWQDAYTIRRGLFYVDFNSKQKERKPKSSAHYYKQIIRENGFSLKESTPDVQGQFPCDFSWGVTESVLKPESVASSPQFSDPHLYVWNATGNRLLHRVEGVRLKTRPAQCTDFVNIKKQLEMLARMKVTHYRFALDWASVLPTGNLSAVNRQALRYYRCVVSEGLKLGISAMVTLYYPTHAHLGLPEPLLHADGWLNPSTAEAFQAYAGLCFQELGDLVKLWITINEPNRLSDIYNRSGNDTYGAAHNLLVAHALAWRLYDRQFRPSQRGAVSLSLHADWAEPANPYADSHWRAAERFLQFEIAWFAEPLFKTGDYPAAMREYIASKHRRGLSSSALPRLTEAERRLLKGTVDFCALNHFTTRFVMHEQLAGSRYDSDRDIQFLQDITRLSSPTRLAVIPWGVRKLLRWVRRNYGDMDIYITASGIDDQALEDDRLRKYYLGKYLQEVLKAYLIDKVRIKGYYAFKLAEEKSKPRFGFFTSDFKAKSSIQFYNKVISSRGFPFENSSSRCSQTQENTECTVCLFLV

In turn, fibroblast growth factor 21 (ligand) returned an equilibrium dissociation constant (Kd) of 3.55 nM.

Usually Kd stands for the constant that tells how readily two partners part at equilibrium. High values mean weaker binding, low ones tighter binding.
